Measured values published in patent publication US9969998B2, “Compositions of adenosine deaminase-2 (ADA2), variants thereof and methods of using same” (Halozyme, Inc., priority 2014, dated 2018).

Experiment: Adenosine deaminase (ADA) enzymatic activity assay kit
Assay type: biochemical
Settings: for adenosine deaminase activity mU/mL / ΔA/min, adenosine deaminase activity: protein diluted to 5 μg/mL, serially diluted 2 fold (Table 21); for % activity vs. WT: relative to rHuADA2 WT (Table 21)
Procedure: Adenosine deaminase activity was determined using an adenosine deaminase (ADA) assay kit (Genway, San Diego, Calif.; Cat. No. BQ014EALD) with minor modifications. The ADA assay is based on the enzymatic deamination of adenosine to inosine, which is converted to hypoxanthine by purine nucleoside phosphorylase (PNP). Hypoxanthine is then converted to uric acid and hydrogen peroxide by xanthine oxidase (XOD). Hydrogen peroxide is further reacted with N-Ethyl-N-(2-hydroxy-3-sulfopropyl)-3-methylaniline (EHSPT) and 4-aminoantipyrine (4-AA) in the presence of peroxidase (POD) to generate quinone dye, which is monitored in a kinetic manner.
Briefly, 5 μL samples in duplicates (at appropriate dilutions to measure steady-state, non-saturating enzyme activity) were added to 120 μL R1 reagent (provided by the manufacturer; 50 mM Tris HCL, pH 8.0, 2 mM 4-AA, 0.1 U/mL PNP, 0.2 U/mL XOD, 0.6 U/mL peroxidase) in a 96 well plate, according to manufacturer's instructions. The mixtures were incubated at 37° C. for approximately 5 min and 60 μL of R2 reagent (provided by the manufacturer; 50 mM Tris HCl, pH 4.0, 10 mM Adenosine, 2 mM EHSPT) was added to the mixtures. Then, change in absorbance (AA) at 556 nm over time at 37° C. was measured. One unit of ADA is the amount of ADA that generates one μmole of inosine from adenosine per minute at 37° C. Adenosine deaminase activity in mU/mL was calculated using the following formula: 1 mU/mL=(ΔA/min×Tv)/(Sv×ϵ×1) • where Tv=total volume (185 μL), Sv=sample volume (5 μL), ϵ=32.2×10^−3 μM^−1 cm^−1, 1=0.5 cm.
Adenosine deaminase activity of WT rHuADA2 and variants tested above were determined using the adenosine deaminase activity (ADA) assay described in Example 4. Activity was assessed on purified rHuADA2 WT and variants that were diluted to 5 μg/mL, and then serially diluted 2 fold to generate 4 measurements.
Adenosine deaminase activity of PEGylated rHuADA2 and variants was assessed using the method described in Example 4, and compared to the activity of the corresponding non-PEGylated form.
Selected candidate variants described in Table 8 above, containing an amino acid substitution in a residue that play a role in enzymatic activity, were assessed for their adenosine deaminase activity using the method described in Example 4. To perform the experiments, purified WT rHuADA2 and tested variants were prepared at 5 μg/mL concentration to normalize the amount of protein in each experiment.

| Molecule | enzymatic activity relative to WT rHuADA2 | adenosine deaminase activity mU/mL [mU/mL] | ΔA/min, adenosine deaminase activity | % activity vs. WT [%] |
| --- | --- | --- | --- | --- |
| K455D: ADA2 variant SEQ ID NO:26 (protein, human ADA2 K452D, mature numbering) IDETRAHLLLKEKMMRLGGRLVLNTKEELANERLMTLKIAEMKEAMRTLIFPPSMHFFQAKHLIERSQVFNILRMMPKGAALHLHDIGIVTMDWLVRNVTYRPHCHICFTPRGIMQFRFAHPTPRPSEKCSKWILLEDYRKRVQNVTEFDDSLLRNFTLVTQHPEVIYTNQNVVWSKFETIFFTISGLIHYAPVFRDYVFRSMQEFYEDNVLYMEIRARLLPVYELSGEHHDEEWSVKTYQEVAQKFVETHPEFIGIKIIYSDHRSKDVAVIAESIRMAMGLRIKFPTVVAGFDLVGHEDTGHSLHDYKEALMIPAKDGVKLPYFFHAGETDWQGTSIDRNILDALMLNTTRIGHGFALSKHPAVRTYSWKKDIPIEVCPISNQVLKLVSDLRNHPVATLMATGHPMVISSDDPAMFGAKGLSYDFYEVFMGIGGMKADLRTLKQLAMNSIDYSTLLESEKNTFMEIWKKRWDKFIADVATK | improved enzymatic activity | 97.9 | 42.6 | 125.5 |
| K455A: ADA2 variant SEQ ID NO:25 (protein, human ADA2 K452A, mature numbering) IDETRAHLLLKEKMMRLGGRLVLNTKEELANERLMTLKIAEMKEAMRTLIFPPSMHFFQAKHLIERSQVFNILRMMPKGAALHLHDIGIVTMDWLVRNVTYRPHCHICFTPRGIMQFRFAHPTPRPSEKCSKWILLEDYRKRVQNVTEFDDSLLRNFTLVTQHPEVIYTNQNVVWSKFETIFFTISGLIHYAPVFRDYVFRSMQEFYEDNVLYMEIRARLLPVYELSGEHHDEEWSVKTYQEVAQKFVETHPEFIGIKIIYSDHRSKDVAVIAESIRMAMGLRIKFPTVVAGFDLVGHEDTGHSLHDYKEALMIPAKDGVKLPYFFHAGETDWQGTSIDRNILDALMLNTTRIGHGFALSKHPAVRTYSWKKDIPIEVCPISNQVLKLVSDLRNHPVATLMATGHPMVISSDDPAMFGAKGLSYDFYEVFMGIGGMKADLRTLKQLAMNSIAYSTLLESEKNTFMEIWKKRWDKFIADVATK |  | 14 | 6.1 | 18 |
| K16D: ADA2 variant SEQ ID NO:17 (protein, human ADA2 K13D, mature numbering) IDETRAHLLLKEDMMRLGGRLVLNTKEELANERLMTLKIAEMKEAMRTLIFPPSMHFFQAKHLIERSQVFNILRMMPKGAALHLHDIGIVTMDWLVRNVTYRPHCHICFTPRGIMQFRFAHPTPRPSEKCSKWILLEDYRKRVQNVTEFDDSLLRNFTLVTQHPEVIYTNQNVVWSKFETIFFTISGLIHYAPVFRDYVFRSMQEFYEDNVLYMEIRARLLPVYELSGEHHDEEWSVKTYQEVAQKFVETHPEFIGIKIIYSDHRSKDVAVIAESIRMAMGLRIKFPTVVAGFDLVGHEDTGHSLHDYKEALMIPAKDGVKLPYFFHAGETDWQGTSIDRNILDALMLNTTRIGHGFALSKHPAVRTYSWKKDIPIEVCPISNQVLKLVSDLRNHPVATLMATGHPMVISSDDPAMFGAKGLSYDFYEVFMGIGGMKADLRTLKQLAMNSIKYSTLLESEKNTFMEIWKKRWDKFIADVATK |  | 67.3 | 29.3 | 86.3 |
| K14A: ADA2 variant SEQ ID NO:13 (protein, human ADA2 K11A, mature numbering) IDETRAHLLLAEKMMRLGGRLVLNTKEELANERLMTLKIAEMKEAMRTLIFPPSMHFFQAKHLIERSQVFNILRMMPKGAALHLHDIGIVTMDWLVRNVTYRPHCHICFTPRGIMQFRFAHPTPRPSEKCSKWILLEDYRKRVQNVTEFDDSLLRNFTLVTQHPEVIYTNQNVVWSKFETIFFTISGLIHYAPVFRDYVFRSMQEFYEDNVLYMEIRARLLPVYELSGEHHDEEWSVKTYQEVAQKFVETHPEFIGIKIIYSDHRSKDVAVIAESIRMAMGLRIKFPTVVAGFDLVGHEDTGHSLHDYKEALMIPAKDGVKLPYFFHAGETDWQGTSIDRNILDALMLNTTRIGHGFALSKHPAVRTYSWKKDIPIEVCPISNQVLKLVSDLRNHPVATLMATGHPMVISSDDPAMFGAKGLSYDFYEVFMGIGGMKADLRTLKQLAMNSIKYSTLLESEKNTFMEIWKKRWDKFIADVATK |  | 11.4 | 4.9 | 14.6 |
| K14D: ADA2 variant SEQ ID NO:14 (protein, human ADA2 K11D, mature numbering) IDETRAHLLLDEKMMRLGGRLVLNTKEELANERLMTLKIAEMKEAMRTLIFPPSMHFFQAKHLIERSQVFNILRMMPKGAALHLHDIGIVTMDWLVRNVTYRPHCHICFTPRGIMQFRFAHPTPRPSEKCSKWILLEDYRKRVQNVTEFDDSLLRNFTLVTQHPEVIYTNQNVVWSKFETIFFTISGLIHYAPVFRDYVFRSMQEFYEDNVLYMEIRARLLPVYELSGEHHDEEWSVKTYQEVAQKFVETHPEFIGIKIIYSDHRSKDVAVIAESIRMAMGLRIKFPTVVAGFDLVGHEDTGHSLHDYKEALMIPAKDGVKLPYFFHAGETDWQGTSIDRNILDALMLNTTRIGHGFALSKHPAVRTYSWKKDIPIEVCPISNQVLKLVSDLRNHPVATLMATGHPMVISSDDPAMFGAKGLSYDFYEVFMGIGGMKADLRTLKQLAMNSIKYSTLLESEKNTFMEIWKKRWDKFIADVATK |  | 18.7 | 8.1 | 24 |
| K16E: ADA2 variant SEQ ID NO:18 (protein, human ADA2 K13E, mature numbering) IDETRAHLLLKEEMMRLGGRLVLNTKEELANERLMTLKIAEMKEAMRTLIFPPSMHFFQAKHLIERSQVFNILRMMPKGAALHLHDIGIVTMDWLVRNVTYRPHCHICFTPRGIMQFRFAHPTPRPSEKCSKWILLEDYRKRVQNVTEFDDSLLRNFTLVTQHPEVIYTNQNVVWSKFETIFFTISGLIHYAPVFRDYVFRSMQEFYEDNVLYMEIRARLLPVYELSGEHHDEEWSVKTYQEVAQKFVETHPEFIGIKIIYSDHRSKDVAVIAESIRMAMGLRIKFPTVVAGFDLVGHEDTGHSLHDYKEALMIPAKDGVKLPYFFHAGETDWQGTSIDRNILDALMLNTTRIGHGFALSKHPAVRTYSWKKDIPIEVCPISNQVLKLVSDLRNHPVATLMATGHPMVISSDDPAMFGAKGLSYDFYEVFMGIGGMKADLRTLKQLAMNSIKYSTLLESEKNTFMEIWKKRWDKFIADVATK |  | 16.3 | 7.1 | 20.9 |
| K16A: ADA2 variant SEQ ID NO:16 (protein, human ADA2 K13A, mature numbering) IDETRAHLLLKEAMMRLGGRLVLNTKEELANERLMTLKIAEMKEAMRTLIFPPSMHFFQAKHLIERSQVFNILRMMPKGAALHLHDIGIVTMDWLVRNVTYRPHCHICFTPRGIMQFRFAHPTPRPSEKCSKWILLEDYRKRVQNVTEFDDSLLRNFTLVTQHPEVIYTNQNVVWSKFETIFFTISGLIHYAPVFRDYVFRSMQEFYEDNVLYMEIRARLLPVYELSGEHHDEEWSVKTYQEVAQKFVETHPEFIGIKIIYSDHRSKDVAVIAESIRMAMGLRIKFPTVVAGFDLVGHEDTGHSLHDYKEALMIPAKDGVKLPYFFHAGETDWQGTSIDRNILDALMLNTTRIGHGFALSKHPAVRTYSWKKDIPIEVCPISNQVLKLVSDLRNHPVATLMATGHPMVISSDDPAMFGAKGLSYDFYEVFMGIGGMKADLRTLKQLAMNSIKYSTLLESEKNTFMEIWKKRWDKFIADVATK |  | 28 | 12.2 | 35.9 |
